One assay deals with T1, 4H906-bN.
T1 chain: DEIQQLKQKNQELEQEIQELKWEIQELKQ
As to the kind of experiment: two-hybrid library CCNG1.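 Note: natural log of median RNA to DNA barcode read ratio; higher means stronger binding.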

In another assay the target is T2, 4H626-bN.
T2 chain: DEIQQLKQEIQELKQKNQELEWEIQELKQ
Description: two-hybrid library CCNG1.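 Note: natural log of median RNA to DNA barcode read ratio; higher means stronger binding.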

A further assay concerns the target T3, 4H797-bN.
T3 chain: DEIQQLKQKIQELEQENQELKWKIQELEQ
As to the kind of experiment: two-hybrid library CCNG1.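 Note: natural log of median RNA to DNA barcode read ratio; higher means stronger binding.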

The target in another assay is T4, 4H780-bN.
T4 chain: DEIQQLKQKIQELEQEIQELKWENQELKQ
Description: two-hybrid library CCNG1.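 Note: natural log of median RNA to DNA barcode read ratio; higher means stronger binding.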

A further assay has as its target T5, 4H683-bN.
T5 chain: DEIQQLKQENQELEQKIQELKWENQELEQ
Description: two-hybrid library CCNG1.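 Note: natural log of median RNA to DNA barcode read ratio; higher means stronger binding.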

A further assay has as its target T6, 4H918-bN.
T6 chain: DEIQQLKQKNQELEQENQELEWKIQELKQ
Description: two-hybrid library CCNG1.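 Note: natural log of median RNA to DNA barcode read ratio; higher means stronger binding.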

A further assay concerns the target T7, 4H953-bN.
T7 chain: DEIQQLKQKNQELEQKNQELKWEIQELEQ
As to the kind of experiment: two-hybrid library CCNG1.

The target of the next assay is T8, 4H968-bN.
T8 chain: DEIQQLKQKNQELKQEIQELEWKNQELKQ
Description: two-hybrid library CCNG1.

The next assay deals with T9, 4H754-bN.
T9 chain: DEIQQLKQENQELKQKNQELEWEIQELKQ
Description: two-hybrid library CCNG1.

In another assay the target is T10, 4H457-bN.
T10 chain: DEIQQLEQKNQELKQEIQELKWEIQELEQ
Description: two-hybrid library CCNG1.

Another assay has as its target T11, 4H855-bN.
T11 chain: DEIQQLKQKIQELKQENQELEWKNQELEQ
Description: two-hybrid library CCNG1.

The target of another assay is T12, 4H575-bN.
T12 chain: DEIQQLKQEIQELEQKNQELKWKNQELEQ
As to the kind of experiment: two-hybrid library CCNG1.

The next assay concerns the target T13, 4H3121-AA.
T13 chain: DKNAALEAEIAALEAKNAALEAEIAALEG
Description: two-hybrid library CCmax. The settings on record: mean of both orientations.

Another assay addresses T14, 4H3628-AA.
T14 chain: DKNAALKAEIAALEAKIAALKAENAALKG
As to the kind of experiment: two-hybrid library CCmax. To be noted: mean of both orientations.

In a further assay the target is T15, 4H656-AA.
T15 chain: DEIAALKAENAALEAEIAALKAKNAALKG
Description: two-hybrid library CCmax. The settings on record: mean of both orientations.

The next assay has as its target T16, 4H3446-AA.
T16 chain: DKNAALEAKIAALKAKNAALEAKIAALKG
As to the kind of experiment: two-hybrid library CCmax. The settings on record: mean of both orientations.

Another assay concerns the target T17, 4H3920-AA.
T17 chain: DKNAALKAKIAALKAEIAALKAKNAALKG
As to the kind of experiment: two-hybrid library CCmax. To be noted: mean of both orientations.

For a further assay, the target named is T18, 4H3417-AA.
T18 chain: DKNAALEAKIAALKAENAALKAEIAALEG
As to the kind of experiment: two-hybrid library CCmax. The settings on record: mean of both orientations.

In a further assay the target is T19, 4H3939-AA.
T19 chain: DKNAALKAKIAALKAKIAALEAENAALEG
Description: two-hybrid library CCmax. To be noted: mean of both orientations.

The target in a further assay is T20, 4H3709-AA.
T20 chain: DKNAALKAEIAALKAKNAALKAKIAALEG
As to the kind of experiment: two-hybrid library CCmax. To be noted: mean of both orientations.

A further assay concerns the target T21, 4H497-AA.
T21 chain: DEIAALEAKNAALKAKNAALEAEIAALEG
As to the kind of experiment: two-hybrid library CCmax. The settings on record: mean of both orientations.

The target of a further assay is T22, 4H3102-AA.
T22 chain: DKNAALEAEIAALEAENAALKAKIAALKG
Description: two-hybrid library CCmax. To be noted: mean of both orientations.

The target of the next assay is T23, 4H428-AA.
T23 chain: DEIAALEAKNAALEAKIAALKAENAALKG
Description: two-hybrid library CCmax. To be noted: mean of both orientations.

In a further assay the target is T24, 4H3029-AA.
T24 chain: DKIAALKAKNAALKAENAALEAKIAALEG
Description: two-hybrid library CCmax.

In another assay the target is T25, 4H391-AA.
T25 chain: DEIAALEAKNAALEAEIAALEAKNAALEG
As to the kind of experiment: two-hybrid library CCmax. The settings on record: mean of both orientations.

In the next assay the target is T26, 4H675-AA.
T26 chain: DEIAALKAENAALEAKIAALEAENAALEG
As to the kind of experiment: two-hybrid library CCmax. To be noted: mean of both orientations.

A further assay deals with T27, 4H478-AA.
T27 chain: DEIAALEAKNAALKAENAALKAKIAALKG
As to the kind of experiment: two-hybrid library CCmax. The settings on record: mean of both orientations.

The target of another assay is T28, 4H3666-AA.
T28 chain: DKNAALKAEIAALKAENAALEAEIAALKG
As to the kind of experiment: two-hybrid library CCmax. The settings on record: mean of both orientations.

The target of a further assay is T29, 4H3591-AA.
T29 chain: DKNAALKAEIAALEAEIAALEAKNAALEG
As to the kind of experiment: two-hybrid library CCmax. To be noted: mean of both orientations.

Another assay concerns the target T30, 4H971-AA.
T30 chain: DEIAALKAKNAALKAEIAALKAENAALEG
Description: two-hybrid library CCmax. To be noted: mean of both orientations.

A further assay addresses T31, 4H3066-AA.
T31 chain: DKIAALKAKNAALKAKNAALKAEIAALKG
Description: two-hybrid library CCmax. To be noted: mean of both orientations.

The next assay concerns the target T32, 4H591-bN.
T32 chain: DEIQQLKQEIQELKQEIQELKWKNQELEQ
Description: two-hybrid library CCNG1.

The next assay has as its target T33, 4H855-bA.
T33 chain: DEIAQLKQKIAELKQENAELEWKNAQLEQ
As to the kind of experiment: two-hybrid library CCNG1.

The target in a further assay is T34, 4H953-bA.
T34 chain: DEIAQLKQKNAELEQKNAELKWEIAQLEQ
Description: two-hybrid library CCNG1.

The next assay addresses T35, 4H780-bA.
T35 chain: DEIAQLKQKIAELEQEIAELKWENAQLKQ
Description: two-hybrid library CCNG1.

The target of another assay is T36, 4H683-bA.
T36 chain: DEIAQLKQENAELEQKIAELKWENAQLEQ
As to the kind of experiment: two-hybrid library CCNG1.

The next assay deals with T37, 4H754-bA.
T37 chain: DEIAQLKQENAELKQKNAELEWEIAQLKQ
As to the kind of experiment: two-hybrid library CCNG1.

The target of a further assay is T38, O8-bA.
T38 chain: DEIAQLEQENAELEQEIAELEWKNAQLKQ
As to the kind of experiment: two-hybrid library CCNG1.

For a further assay, the target named is T39, 4H968-bA.
T39 chain: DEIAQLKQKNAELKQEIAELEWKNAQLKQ
Description: two-hybrid library CCNG1.

A further assay addresses T40, 4H797-bA.
T40 chain: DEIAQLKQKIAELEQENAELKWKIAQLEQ
Description: two-hybrid library CCNG1.

In another assay the target is T41, 4H918-bA.
T41 chain: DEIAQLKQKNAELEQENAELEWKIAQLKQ
Description: two-hybrid library CCNG1.

For a further assay, the target named is T42, 4H535-AA.
T42 chain: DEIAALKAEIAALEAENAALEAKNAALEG
As to the kind of experiment: two-hybrid library CCmax.

A further assay concerns the target 4H_GCN4. Description: two-hybrid library CCmax.
The next assay deals with GCN2_T. Description: two-hybrid library CCmax.
A further assay addresses T43, 4H895-AA.
T43 chain: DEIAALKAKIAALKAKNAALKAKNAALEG
As to the kind of experiment: two-hybrid library CCmax. The settings on record: mean of both orientations.

A further assay concerns the target T44, 4H_APH.
T44 chain: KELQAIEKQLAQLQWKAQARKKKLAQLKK
As to the kind of experiment: two-hybrid library CCmax.

A further assay addresses T45, 4H58-AA.
T45 chain: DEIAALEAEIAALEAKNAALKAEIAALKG
Description: two-hybrid library CCmax. To be noted: mean of both orientations.

In the next assay the target is T46, 4H_BCR.
T46 chain: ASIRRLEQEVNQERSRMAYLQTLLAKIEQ
Description: two-hybrid library CCmax. To be noted: mean of both orientations.

In another assay the target is T47, 4H619-bA.
T47 chain: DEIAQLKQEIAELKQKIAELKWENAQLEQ
As to the kind of experiment: two-hybrid library CCNG1.

A further assay deals with T48, 4H850-bA.
T48 chain: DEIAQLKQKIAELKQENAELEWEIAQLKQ
Description: two-hybrid library CCNG1.

In the next assay the target is T49, 4H906-bA.
T49 chain: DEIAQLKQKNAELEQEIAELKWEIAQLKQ
As to the kind of experiment: two-hybrid library CCNG1.

Read-outs that look alike come from different tables or passages of the source.

Chain of 4H_GCN4 (chain, as listed by the source): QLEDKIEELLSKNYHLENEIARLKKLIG

For DEIQQLKQEIQELKQKNQELEWEIQELKQ [4H626-bN], the values for the interaction score with 4H906-bN and with 4H626-bN were -0.523 and 0.832, respectively.
With DEIQQLEQKNQELKQEIQELKWEIQELEQ [4H457-bN], the interaction score with 4H797-bN is -1.31; with 4H780-bN, -1.08; with 4H683-bN, -0.914; with 4H918-bN, -1.24; with 4H953-bN, -0.785; with 4H968-bN it was -1.86. Moreover, the interaction score with 4H754-bN is -0.487; in the assay with 4H457-bN, -1.6; in the assay with 4H855-bN, -2.15; with 4H575-bN, -0.989.
Take DKIAALKAKNAALEAKIAALKAKNAALEG [4H2991-AA]: the interaction score in the assay with 4H3121-AA was 1.28; in the assay with 4H3628-AA, -1.99; with 4H656-AA, -0.731; with 4H3446-AA, -1.73; with 4H3920-AA, -1.73; in the assay with 4H3417-AA, -1.68. Further, the interaction score was -1.71 in the assay with 4H3939-AA; -1.43 with 4H3709-AA; -1.91 with 4H497-AA; -0.548 with 4H3102-AA; -0.913 in the assay with 4H428-AA; -1.76 in the assay with 4H3029-AA (mean of both orientations). Moreover, the interaction score with 4H391-AA was 1.52; with 4H675-AA, -0.186; in the assay with 4H478-AA, -1.87; in the assay with 4H3666-AA it was -1.01; with 4H3591-AA it was -1.47; with 4H971-AA it was -0.98. The molecule also had an interaction score with 4H3066-AA of -1.81.
Regarding DEIQQLKQEIQELKQEIQELKWKNQELEQ [4H591-bN], the interaction score with 4H591-bN is 1.27; in the assay with 4H906-bN it was -1.13; with 4H626-bN, -0.933.
For DEIAQLKQENAELEQKIAELKWENAQLEQ [4H683-bA], the interaction score with 4H855-bA was -0.474; with 4H953-bA it was -1.67; with 4H780-bA, -1.43; with 4H683-bA, -0.189; with 4H754-bA, -0.665; with O8-bA it was -2.64. In addition, the interaction score is 2.25 with 4H968-bA, -1.06 with 4H797-bA and -0.784 with 4H918-bA.
As for DEIAALKAEIAALEAENAALEAKNAALEG [4H535-AA], the interaction score is -0.291 with 4H535-AA; -1.41 with 4H_GCN4; -2.47 with GCN2_T; 2.1 in the assay with 4H895-AA; -1.48 in the assay with 4H_APH; -0.661 with 4H58-AA. In the assay with 4H_BCR, this molecule came in with an interaction score of -1.23.
DKIAALKAKNAALKAENAALEAKIAALEG [4H3029-AA]: the interaction score was -1.89 in the assay with 4H3121-AA; -1.87 in the assay with 4H3628-AA; -1.3 with 4H656-AA; -1.79 with 4H3446-AA; -1.69 with 4H3920-AA; -1.74 with 4H3417-AA. Further, the interaction score with 4H3939-AA was -1.98; in the assay with 4H3709-AA, -1.34; with 4H497-AA, -0.722; with 4H3102-AA, 0.23; with 4H428-AA it was -1.74; with 4H3029-AA it was -0.965. Further, the interaction score with 4H391-AA is -1.42; with 4H675-AA, -1.45; with 4H478-AA, 1.48; in the assay with 4H3666-AA, -1.86; in the assay with 4H3591-AA, -1.37; with 4H971-AA, -2.45. Besides, the interaction score with 4H3066-AA is -1.01.
Take DEIAQLKQEIAELKQKIAELKWENAQLEQ [4H619-bA]: the values for the interaction score with 4H619-bA, with 4H850-bA and with 4H906-bA were -0.211, -0.446 and -1.09, respectively.

(Values after PMC10397247.)
